Experimental data reported in patent publication US20230250176A1 (DRAGONFLY THERAPEUTICS, published 2023).

What was measured:
[1] = target: T1, human EGFR (wild type) on cells (human, UniProt P00533 25-1210); experiment: flow cytometry, NCI-H1703 cells
T1 construct: whole, on cells; also called EGFRwt

[2] = target: T2, purified recombinant human EGFR (human, UniProt P00533 25-645); experiment: SPR (Biacore 8K), 37 C
T2 construct: the whole entry is named; also called recombinant human epidermal growth factor receptor

[3] = target: T3, human EGFR L747-E749del, A750P on HCC4006 cells (human, UniProt P00533 25-1210); experiment: flow cytometry, HCC4006 cells
T3 construct: whole, on cells; The deletion L747-E749 cannot be written as a substitution; it stands under detail; also called EGFRmut L747-E749del, A750P

[4] = target: T4, purified recombinant human FcγRIIa H131 (human, UniProt P12318 36-218, limits assumed); experiment: SPR (Biacore 8K), 25 C
T4 sequence (looked up): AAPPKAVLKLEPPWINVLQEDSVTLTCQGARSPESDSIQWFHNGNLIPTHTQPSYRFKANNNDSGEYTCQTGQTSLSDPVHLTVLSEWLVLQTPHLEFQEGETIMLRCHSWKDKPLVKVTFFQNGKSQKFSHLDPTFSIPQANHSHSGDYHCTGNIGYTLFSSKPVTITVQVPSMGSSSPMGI

[5] = target: T5, purified recombinant human FcγRIIIa V158 (human, UniProt P08637 17-208); experiment: SPR (Biacore 8K), 25 C
T5 construct: also called human CD16 V158; CD16a

[6] = target: purified recombinant human FcγRI (human, UniProt P12314 16-288, limits assumed); experiment: SPR (Biacore 8K), 25 C
[7] = target: T6, human NKG2D on cells (human, UniProt P26718 1-216); experiment: flow cytometry with AF647-conjugated test article on KHYG-1 parental cells (NKG2D, no CD16a); KHYG-1 parental cell line (NKG2D+, CD16a-), titrated from 800 nM
T6 construct: whole, on cells; also called NKG2D on KHYG-1 parental cells; NKG2D on CD8+ T cells and NK cells
T6 sequence (looked up): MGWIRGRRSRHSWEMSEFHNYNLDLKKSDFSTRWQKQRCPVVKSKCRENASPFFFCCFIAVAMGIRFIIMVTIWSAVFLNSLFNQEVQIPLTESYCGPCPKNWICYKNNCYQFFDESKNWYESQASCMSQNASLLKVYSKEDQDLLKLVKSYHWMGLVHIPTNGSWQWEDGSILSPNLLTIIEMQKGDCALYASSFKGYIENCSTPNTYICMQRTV

[8] = target: T1, human EGFR (wild type) on cells; experiment: flow cytometry, 786-O cells
[9] = target: T7, cynomolgus monkey EGFR on primary cynomolgus monkey esophageal epithelial cells (cynomolgus monkey, UniProt A0A2K5WK39 25-1210); experiment: flow cytometry on primary cynomolgus monkey esophageal epithelial cells, anti-human Fc-PE secondary
T7 construct: whole, on cells; also called cynomolgus monkey EGFR-expressing cells

[10] = target: T2, purified recombinant human EGFR; experiment: SPR (Biacore 8K), 37 C; remark: listed apart in the source
[11] = target: T6, human NKG2D on cells; experiment: cell-based or functional assay
[12] = target: T8, purified recombinant human NKG2D (human, UniProt P26718 78-216, limits assumed); experiment: SPR (Biacore 8K), 25 C
T8 sequence (looked up): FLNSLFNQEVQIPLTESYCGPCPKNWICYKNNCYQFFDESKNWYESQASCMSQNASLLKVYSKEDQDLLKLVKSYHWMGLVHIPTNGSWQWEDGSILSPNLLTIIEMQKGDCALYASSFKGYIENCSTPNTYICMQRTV

[13] = target: T3, human EGFR L747-E749del, A750P on …; experiment: cell-based or functional assay
[14] = target: human EGFR T790M, L858R on NCI-H1975 cells (human, UniProt P00533 25-1210); experiment: cell-based or functional assay
[15] = target: cynomolgus monkey FcRn (cynomolgus monkey, UniProt Q8SPV9 24-297; Q8SPW0 21-119, limits assumed); experiment: SPR, pH 6.0; pH 6.0
[16] = target: T6, human NKG2D on cells; experiment: cell-based or functional assay; remark: listed apart in the source
[17] = target: T9, cynomolgus monkey CD16a (cynomolgus monkey, UniProt Q8SPW2 17-208, limits assumed); experiment: SPR
T9 construct: also called cynomolgus monkey FcγRIIIa

[18] = target: T1, human EGFR (wild type) on cells; experiment: flow cytometry, Detroit 562 cells
[19] = target: T10, purified recombinant human FcRn (human, UniProt P55899 24-297; P61769 21-119); experiment: SPR (Biacore 8K), 25 C, pH 6.0; pH 6.0
T10 construct: also called neonatal Fc receptor

[20] = target: T1, human EGFR (wild type) on cells; experiment: flow cytometry, KYSE-30 cells
[21] = target: T8, purified recombinant human NKG2D; experiment: SPR
[22] = target: T1, human EGFR (wild type) on cells; experiment: flow cytometry, NCI-H292 cells

B1: EGFR-TriNKET (bispecific antibody, human IgG1, kappa)
chain: DIQMTQSPSSLSASVGDRVTITCQASQDISNYLNWYQQKPGKAPKLLIYDASNLETGVPSRFSGSGSGTDFTFTISSLQPEDIATYYCQHFRHLPLAFGCGTKVEIKGGGGSGGGGSGGGGSGGGGSQVQLQESGPGLVKPSETLSLTCTVSGGSVSSGDYYWTWIRQSPGKCLEWIGHIYYSGNTNYNPRLKSRLTISIDTSKTQFSLKLSSVTAADTAIYYCVRDRVTGAFDIWGQGTMVTVSSGSDKTHTCPPCPAPELLGGPSVFLFPPKPKDTLMISRTPEVTCVVVDVSHEDPEVKFNWYVDGVEVHNAKTKPREEQYNSTYRVVSVLTVLHQDWLNGKEYKCKVSNKALPAPIEKTISKAKGQPREPRVYTLPPCRDELTKNQVSLTCLVKGFYPSDIAVEWESNGQPENNYKTTPPVLVSDGSFTLYSKLTVDKSRWQQGNVFSCSVMHEALHNHYTQKSLSLSPG
heavy: EVQLVESGGGLVKPGGSLRLSCAASGFTFSSYSMNWVRQAPGKGLEWVSSISSSSSYIYYADSVKGRFTISRDNAKNSLYLQMNSLRAEDTAVYYCARGAPIGAAAGWFDPWGQGTLVTVSSASTKGPSVFPLAPSSKSTSGGTAALGCLVKDYFPEPVTVSWNSGALTSGVHTFPAVLQSSGLYSLSSVVTVPSSSLGTQTYICNVNHKPSNTKVDKKVEPKSCDKTHTCPPCPAPELLGGPSVFLFPPKPKDTLMISRTPEVTCVVVDVSHEDPEVKFNWYVDGVEVHNAKTKPREEQYNSTYRVVSVLTVLHQDWLNGKEYKCKVSNKALPAPIEKTISKAKGQPREPQVCTLPPSRDELTENQVSLTCLVKGFYPSDIAVEWESNGQPENNYKTTPPVLDSDGSFFLYSWLTVDKSRWQQGNVFSCSVMHEALHNHYTQKSLSLSPG
light: DIQMTQSPSSVSASVGDRVTITCRASQGISSWLAWYQQKPGKAPKLLIYAASSLQSGVPSRFSGSGSGTDFTLTISSLQPEDFATYYCQQGVSFPRTFGGGTKVEIKRTVAAPSVFIFPPSDEQLKSGTASVVCLLNNFYPREAKVQWKVDNALQSGNSQESVTEQDSKDSTYSLSSTLTLSKADYEKHKVYACEVTHQGLSSPVTKSFNRGEC
notes: also called EGFR-TriNKET-3
- EC50 [1]: 4.6 nM
- Max FOB [1]: 730 fold over background
- Kd [2]: 4.7 nM
- koff [2]: 0.00095 s⁻¹
- kon [2]: 200000 M⁻¹ s⁻¹
- EC50 [3]: 1.8 nM
- Max FOB [3]: 160 fold over background
- Kd [4]: 1000 nM
- Kd [5]: 53.8 nM
- koff [5]: 0.011 s⁻¹
- kon [5]: 200000 M⁻¹ s⁻¹
- Kd [6]: 5.6 nM
- koff [6]: 0.00024 s⁻¹
- kon [6]: 42000 M⁻¹ s⁻¹
- EC50 [7]: > 600 nM
- EC50 [8]: 3.5 nM
- Max FOB [8]: 330 fold over background
- EC50 [9]: 1.09 nM
- fold weaker affinity than panitumumab [10]: 4.7 fold
- EC50, CD8+ T-cell lysis of 786-O cells [11]: 0.43 nM
- EC50, CD8+ T-cell lysis of NCI-H1975 cells [11]: 0.17 nM
- Kd [12]: 482 nM
- koff [12]: 0.11 s⁻¹
- kon [12]: 230000 M⁻¹ s⁻¹
- EC50, short-term NK cell-mediated cytotoxicity (DELFIA), HCC4006 [13]: 0.092 nM
- EC50, short-term NK cell-mediated cytotoxicity (DELFIA), NCI-H1975 [14]: 0.1 nM
- Kd [15]: 900 nM
- EC50, IFNγ release from NK cells (AlphaLISA) in the presence of HT29 cells [16]: 1.6 nM
- EC50, IFNγ release from NK cells (AlphaLISA) in the presence of NCI-H1975 cells [16]: 0.88 nM
- Kd [17]: 80.9 nM
- EC50 [18]: 1.6 nM
- Max FOB [18]: 490 fold over background
- Kd [19]: 1000 nM
- EC50 [20]: 11 nM
- Max FOB [20]: 1800 fold over background
- Kd [21]: 482 nM
- EC50 [22]: 5.3 nM
- Max FOB [22]: 800 fold over background
